Data on 24 molecules can be found in patent publication US20190135918A1 (ICHNOS SCIENCES, published 2019).

Where a chain is given by its changes, count along the chain named.

The chains are these.
B1: VH6/VL8 (antibody, human IgG1, kappa, V domains shown)
VH: EVQLVESGGGLVQPGGSLRLSCAASGYTFTRYTMHWVRQAPGKGLEWIGYINPSRGYTRYADSVKGRFTLSTDKSKNTAYLQMNSLRAEDTAVYYCARYYDDHYCLDYWGQGTLVTVSS
VL: DIQLTQSPSSLSASVGDRVTITCRASSSVSYVAWYQQKPGKAPKRWIYDTSKLYSGVPSRFSGSGSGTDYTLTISSLQPEDFATYYCQQWSSNPPTFGQGTKVEIKR
notes: human IgG1; also called humanized OKT3 VH6/VL8 antibody; copies: 2 + 2
B2: VH10/VL8 (antibody, human IgG1, kappa, V domains shown)
VH: B1 VH with R59Y, G66S, F68A
VL: B1 VL
notes: human IgG1; also called humanized OKT3 VH10/VL8 antibody; copies: 2 + 2
B3: VH7/VL4 (antibody, human IgG1, kappa, V domains shown)
VH: B1 VH with I48V, R59N
VL: B1 VL with G65R
notes: human IgG1; also called humanized OKT3 VH7/VL4 antibody; copies: 2 + 2
B4: VH9/VL8 (antibody, human IgG1, kappa, V domains shown)
VH: B1 VH with R59Y, G66S
VL: B1 VL
notes: human IgG1; also called humanized OKT3 VH9/VL8 antibody; copies: 2 + 2
B5: VH10/VL4 (antibody, human IgG1, kappa, V domains shown)
VH: B1 VH with R59Y, G66S, F68A
VL: B1 VL with G65R
notes: human IgG1; also called humanized OKT3 VH10/VL4 antibody; copies: 2 + 2
B6: VH1/VL3 (antibody)
heavy: not shown
light: EAVVTQSATLSVSPGERATLSCRSSTGAVTTSNYANWVQEKPGQAFRGLIGGANKRAPGVPARFSGSLSGDEATLTISSLQSEDFAVYFCQLWYSNLWVFGQGTKLEIKRTVAAPSVFIFPPSDEQLKSGTASVVCLLNNFYPREAKVQWKVDNALQSGNSQESVTEQDSKDSTYSLSSTLTLSKADYEKHKVYACEVTHQGLSSPVTKSFNRGEC
notes: IgG1; SP34 series; also called humanized SP34 VH1/VL3 antibody; copies: 2 + 2
B7: Chimeric SP34 (antibody, human IgG1, kappa, V domains shown)
VH: EVQLVESGGGLVQPKGSLKLSCAASGFTFNTYAMNWVRQAPGKGLEWVARIRSKYNNYATYYADSVKDRFTISRDDSQSILYLQMNNLKTEDTAMYYCVRHGNFGNSYVSWFAYWGQGTLVTVSA
VL: QAVVTQESALTTSPGETVTLTCRSSTGAVTTSNYANWVQEKPDHLFTGLIGGTNKRAPGVPARFSGSLIGDKAALTITGAQTEDEAIYFCALWYSNLWVFGGGTKLTVLR
notes: IgG1; also called chimeric SP34 antibody; SP34 chimera
B8: VH1/VL2 (antibody, human IgG1, kappa)
heavy: not shown
light: EAVVTQSPATLSVSPGERATLSCRSSTGAVTTSNYANWVQEKPGQAFRGLIGGANKRAPGVPARFSGSLSGDEATLTISSLQSEDFAVYFCALWYSNLWVFGQGTKLEIKRTVAAPSVFIFPPSDEQLKSGTASVVCLLNNFYPREAKVQWKVDNALQSGNSQESVTEQDSKDSTYSLSSTLTLSKADYEKHKVYACEVTHQGLSSPVTKSFNRGEC
notes: IgG1; SP34 series; copies: 2 + 2
B9: VH1/VL13 (antibody, human IgG1, kappa)
heavy: not shown
light: B8 light with S25A
notes: IgG1; also called humanized SP34 VH1/VL13 antibody; copies: 2 + 2
B10: VH1/VL8 (antibody, human IgG1, kappa, V domains shown)
VH: EVQLVESGGGLVQPGGSLRLSCAASGFTFNTYAMNWVRQAPGKGLEWVARIRSKYNNYATYYADSVKGRFTISRDDSKNTLYLQMNSLRAEDTAVYYCVRHGNFGNSYVSWFAYWGQGTTVTVSS
VL: EAVVTQSPATLSVSPGERATLSCRSSTGAVTTSNYANWVQEKPGQAFRGLIGGANKRAPGVPARFSGSGSGDEATLTISSLQSEDFAVYFCALWYSNLWVFGQGTKLEIKR
notes: IgG1; also called humanized SP34 VH1/VL8 antibody; copies: 2 + 2
B11: VH1/VL15 (antibody, human IgG1, kappa, V domains shown)
VH: B10 VH
VL: B10 VL with E41Q, G69L
notes: IgG1; also called humanized SP34 VH1/VL15 antibody; copies: 2 + 2
B12: humanized SP34 prototype antibody VH1/VL1 (antibody, human IgG1, kappa)
VH: not shown
VL: B8 light with A92Q
notes: Human IgG1; Printed as 'variable heavy chain and light chain'
B13: VH1/VL5 (antibody, human IgG1, kappa)
heavy: not shown
light: B8 light with A2I
notes: IgG1; also called humanized SP34 VH1/VL5 antibody; copies: 2 + 2
B14: VH1/VL19 (antibody, human IgG1, kappa, V domains shown)
VH: B10 VH
VL: B10 VL with A2I, G69L, D72T, F90Y
notes: IgG1; also called humanized SP34 VH1/VL19 antibody; copies: 2 + 2
B15: VH1/VL18 (antibody, human IgG1, kappa)
heavy: not shown
light: B8 light with A2I, Q103G
notes: IgG1; also called humanized SP34 VH1/VL18 antibody; copies: 2 + 2
B16: VH1/VL21 (antibody, human IgG1, kappa)
heavy: not shown
light: B8 light with A2I, F90Y
notes: IgG1 format of the variable domains of m38; also called humanized SP34 VH1/VL21 antibody (IgG1 format); H1L21 IgG1; copies: 2 + 2
B17: VH1/VL22 (antibody, human IgG1, kappa, V domains shown)
VH: B10 VH
VL: B10 VL with A2I, E41Q, G69L, F90Y
notes: IgG1; also called humanized SP34 VH1/VL22 antibody; copies: 2 + 2
B18: VH1/VL14 (antibody, human IgG1, kappa, V domains shown)
VH: B10 VH
VL: B10 VL with G49L, G69L
notes: IgG1; also called humanized SP34 VH1/VL14 antibody; copies: 2 + 2
B19: VH1/VL16 (antibody, human IgG1, kappa)
heavy: not shown
light: B8 light with A2I, D72T
notes: IgG1; also called humanized SP34 VH1/VL16 antibody; copies: 2 + 2
B20: VH1/VL12 (antibody, human IgG1, kappa)
heavy: not shown
light: B8 light with D72T
notes: IgG1; also called humanized SP34 VH1/VL12 antibody; copies: 2 + 2
B21: VH1/VL10 (antibody, human IgG1, kappa)
heavy: not shown
light: B8 light with F90Y
notes: IgG1; also called humanized SP34 VH1/VL10 antibody; copies: 2 + 2
B22: VH1/VL6 (antibody, human IgG1, kappa, V domains shown)
VH: B10 VH
VL: B10 VL with F47P, G69L
notes: IgG1; also called humanized SP34 VH1/VL6 antibody; copies: 2 + 2
B23: VH1/VL17 (antibody, human IgG1, kappa)
heavy: not shown
light: B8 light with A2I, S25A
notes: IgG1; also called humanized SP34 VH1/VL17 antibody; copies: 2 + 2
B24: VH1/VL11 (antibody, human IgG1, kappa, V domains shown)
VH: B10 VH
VL: B10 VL with D72T
notes: IgG1; also called humanized SP34 VH1/VL11 antibody; copies: 2 + 2

The first assay has as its target T1, human CD3 epsilon on cells (human, UniProt P07766 23-207).
T1 construct: whole, on cells; On cells it stands in the CD3/TCR complex; also called HPB-ALL cells (human CD3 epsilon positive T cell tumour line); CD3 on human T cells
In words: FACS staining of HPB-ALL cells, human IgG1 format, graded relative to chimeric OKT3.
Procedure: HPB-ALL cells (DSMZ, Braunschweig, Germany, Cat. No: ACC483) were used as CD3 positive cell line for FACS staining. […] After washing, cells were incubated with a 1/200 dilution of anti-Human Fc-PE (EBioscience, Vienna, Austria) for 45 min on ice. Cells were then washed again and resuspended in 200 ul FACS buffer.
Consider B1, for which the binding result is “binds”.
The same measure, in the same setting: to B2 belongs “binds”; to B3, “binds”; to B4, “binds”.
Still for that read-out and setting: to B5 belongs “binds”.

The target of another assay is T2, human CD3 epsilon 1-26_Fc fusion protein (human).
T2 construct: also called human CD3 1-26_Fc fusion protein
The experiment in a line: SPR, human IgG1 format, graded relative to chimeric SP34; one grade for human and cynomolgus protein.
Regarding B6, the binding result was “no binding (tested: not printed)”.
As to B7, the binding result is recorded as “binds”.
The same measure, in the same setting: to B8 belongs “binds”; to B9, “binds”.
As for B10, the binding result is reported as “binds”.
On to B11, for which the binding result is given as “binds”.
The same measure, in the same setting: to B12 belongs “binds”.
Regarding B13, the binding result is on record as “binds”.
On the same count and under the same terms, in the case of B14 it was “binds”; in that of B15, “binds”; in that of B16, “binds”.
Same read-out and setting: in the case of B17 it was “binds”; in that of B18, “no binding (tested: not printed)”.
Still for that read-out and setting: in the case of B19 it was “binds”; in that of B20, “binds”.
Consider B21, for which the binding result is “binds”.
The same measure, in the same setting: to B22 belongs “binds”; to B23, “binds”; to B24, “binds”.

The target of another assay is T3, cynomolgus monkey CD3 epsilon 1-26_Fc fusion protein (cynomolgus monkey).
T3 construct: also called cynomolgus CD3 epsilon 1-26 Fc fusion protein
The assay is described as above.
As for B6, the binding result was “no binding (tested: not printed)”.
The same measure, in the same setting: to B7 belongs “binds”; to B8, “binds”; to B9, “binds”.
On the same count and under the same terms, to B10 belongs “binds”; to B11, “binds”; to B12, “binds”.
Same read-out and setting: in the case of B13 it was “binds”; in that of B14, “binds”.
With B15, the binding result is on record as “binds”.
Still for that read-out and setting: to B16 belongs “binds”.
In the case of B17, the binding result was “binds”.
The same measure, in the same setting: in the case of B18 it was “no binding (tested: not printed)”.
Still for that read-out and setting: to B19 belongs “binds”.
In the case of B20, the binding result was “binds”.
Still for that read-out and setting: in the case of B21 it was “binds”; in that of B22, “binds”; in that of B23, “binds”.
Same read-out and setting: in the case of B24 it was “binds”.
